B1: library; numbered along this chain (parent)
chain: MAAAAAAAAEQQSSNGPVKKSMREKAVERRSVNKEHNSNFKAGYIPIDEDRLHKTGLRGRKGNLAICVIILLFILAVINLIITLVIWAVIRIGPNGCDSMEFHESGLLRFKQVSDMGVIHPLYKSTVGGRRNENLVITGNNQPIVFQQGTTKLSVENNKTSITSDIGMQFFDPRTQNILFSTDYETHEFHLPSGVKSLNVQKASTERITSNATSDLNIKVDGRAIVRGNEGVFIMGKTIEFHMGGNMELKAENSIILNGSVMVSTTRLPSSSSGDQLGSGDWVRYKLCMCADGTLFKVQVTSQNMGCQISDNPCGNTH

Variants of: B1
Assay: SGCB cell-surface expression functional score (HA stain, bin4 vs bin1, normalised to synonymous) (log10 ratio); higher = more cell-surface SGCB (functional)
Outline: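 Codon-saturation libraries of HA-tagged, YFP-fused human beta-sarcoglycan were lentivirally transduced at MOI <0.1 into HEK293 cells stably expressing alpha-, gamma- and delta-sarcoglycan. YFP-positive cells were sorted after 72 hours, grown 5–7 days, stained on ice with Alexa Fluor 647 anti-HA, fixed, sorted into four 5% intensity bins and amplicon-sequenced. The functional score is the log ratio of highest-bin to lowest-bin variant frequency, taken as the median over codons and duplicate transductions. Synonymous variants were scaled per section to mean 0, SD 0.5.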

Row | Variant | SGCB cell-surface expression functional score (log10)
1 | MAAAAAAAAEQQSSNGPVKKSMREKAVERRSVNKEHNSNFKAGYIPIDEDRLHKTGLRGRKGNLAICVIILLFILAVINLIITLVIWAVIRIGPNGCDSMEFHESGLLRFKQVSDMGVIHPLYKSTVGGRRNENLVITGNNQPIVFQQGTTKLSVENNKTSITSDIGMQFFDPRTQNILFSTDYETHEFHLPSGVKSLNVQKASTERITSYATSDLNIKVDGRAIVRGNEGVFIMGKTIEFHMGGNMELKAENSIILNGSVMVSTTRLPSSSSGDQLGSGDWVRYKLCMCADGTLFKVQVTSQNMGCQISDNPCGNTH [N211Y] | 0
2 | MAAAAAAAAEQQSSNGPVKKSMREKAVERRSVNKEHNSNFKAGYIPIDEDRLHKTGLRGRKGNLAICVIILLFILAVINLIITLVIWAVIRIGPNGCDSMEFHESGLLRFKQVSDMGVIHPLYKSTVGGRRNENLVITGNNQPIVFQQGTTKLSVENNKTSITSDIGMQFFDPRTQNILFSTDYETHEFHLPSGVKSLNVQKASTERITSVATSDLNIKVDGRAIVRGNEGVFIMGKTIEFHMGGNMELKAENSIILNGSVMVSTTRLPSSSSGDQLGSGDWVRYKLCMCADGTLFKVQVTSQNMGCQISDNPCGNTH [N211V] | -0.91
3 | MAAAAAAAAEQQSSNGPVKKSMREKAVERRSVNKEHNSNFKAGYIPIDEDRLHKTGLRGRKGNLAICVIILLFILAVINLIITLVIWAVIRIGPNGCDSMEFHESGLLRFKQVSDMGVIHPLYKSTVGGRRNENLVITGNNQPIVFQQGTTKLSVENNKTSITSDIGMQFFDPRTQNILFSTDYETHEFHLPSGVKSLNVQKASTERITSWATSDLNIKVDGRAIVRGNEGVFIMGKTIEFHMGGNMELKAENSIILNGSVMVSTTRLPSSSSGDQLGSGDWVRYKLCMCADGTLFKVQVTSQNMGCQISDNPCGNTH [N211W] | -3.13
4 | MAAAAAAAAEQQSSNGPVKKSMREKAVERRSVNKEHNSNFKAGYIPIDEDRLHKTGLRGRKGNLAICVIILLFILAVINLIITLVIWAVIRIGPNGCDSMEFHESGLLRFKQVSDMGVIHPLYKSTVGGRRNENLVITGNNQPIVFQQGTTKLSVENNKTSITSDIGMQFFDPRTQNILFSTDYETHEFHLPSGVKSLNVQKASTERITSNPTSDLNIKVDGRAIVRGNEGVFIMGKTIEFHMGGNMELKAENSIILNGSVMVSTTRLPSSSSGDQLGSGDWVRYKLCMCADGTLFKVQVTSQNMGCQISDNPCGNTH [A212P] | -0.25
5 | MAAAAAAAAEQQSSNGPVKKSMREKAVERRSVNKEHNSNFKAGYIPIDEDRLHKTGLRGRKGNLAICVIILLFILAVINLIITLVIWAVIRIGPNGCDSMEFHESGLLRFKQVSDMGVIHPLYKSTVGGRRNENLVITGNNQPIVFQQGTTKLSVENNKTSITSDIGMQFFDPRTQNILFSTDYETHEFHLPSGVKSLNVQKASTERITSNKTSDLNIKVDGRAIVRGNEGVFIMGKTIEFHMGGNMELKAENSIILNGSVMVSTTRLPSSSSGDQLGSGDWVRYKLCMCADGTLFKVQVTSQNMGCQISDNPCGNTH [A212K] | -1.05
6 | MAAAAAAAAEQQSSNGPVKKSMREKAVERRSVNKEHNSNFKAGYIPIDEDRLHKTGLRGRKGNLAICVIILLFILAVINLIITLVIWAVIRIGPNGCDSMEFHESGLLRFKQVSDMGVIHPLYKSTVGGRRNENLVITGNNQPIVFQQGTTKLSVENNKTSITSDIGMQFFDPRTQNILFSTDYETHEFHLPSGVKSLNVQKASTERITSNFTSDLNIKVDGRAIVRGNEGVFIMGKTIEFHMGGNMELKAENSIILNGSVMVSTTRLPSSSSGDQLGSGDWVRYKLCMCADGTLFKVQVTSQNMGCQISDNPCGNTH [A212F] | -0.4
7 | MAAAAAAAAEQQSSNGPVKKSMREKAVERRSVNKEHNSNFKAGYIPIDEDRLHKTGLRGRKGNLAICVIILLFILAVINLIITLVIWAVIRIGPNGCDSMEFHESGLLRFKQVSDMGVIHPLYKSTVGGRRNENLVITGNNQPIVFQQGTTKLSVENNKTSITSDIGMQFFDPRTQNILFSTDYETHEFHLPSGVKSLNVQKASTERITSNDTSDLNIKVDGRAIVRGNEGVFIMGKTIEFHMGGNMELKAENSIILNGSVMVSTTRLPSSSSGDQLGSGDWVRYKLCMCADGTLFKVQVTSQNMGCQISDNPCGNTH [A212D] | 0.56
8 | MAAAAAAAAEQQSSNGPVKKSMREKAVERRSVNKEHNSNFKAGYIPIDEDRLHKTGLRGRKGNLAICVIILLFILAVINLIITLVIWAVIRIGPNGCDSMEFHESGLLRFKQVSDMGVIHPLYKSTVGGRRNENLVITGNNQPIVFQQGTTKLSVENNKTSITSDIGMQFFDPRTQNILFSTDYETHEFHLPSGVKSLNVQKASTERITSNGTSDLNIKVDGRAIVRGNEGVFIMGKTIEFHMGGNMELKAENSIILNGSVMVSTTRLPSSSSGDQLGSGDWVRYKLCMCADGTLFKVQVTSQNMGCQISDNPCGNTH [A212G] | 0.11
9 | MAAAAAAAAEQQSSNGPVKKSMREKAVERRSVNKEHNSNFKAGYIPIDEDRLHKTGLRGRKGNLAICVIILLFILAVINLIITLVIWAVIRIGPNGCDSMEFHESGLLRFKQVSDMGVIHPLYKSTVGGRRNENLVITGNNQPIVFQQGTTKLSVENNKTSITSDIGMQFFDPRTQNILFSTDYETHEFHLPSGVKSLNVQKASTERITSNRTSDLNIKVDGRAIVRGNEGVFIMGKTIEFHMGGNMELKAENSIILNGSVMVSTTRLPSSSSGDQLGSGDWVRYKLCMCADGTLFKVQVTSQNMGCQISDNPCGNTH [A212R] | -1.47
10 | MAAAAAAAAEQQSSNGPVKKSMREKAVERRSVNKEHNSNFKAGYIPIDEDRLHKTGLRGRKGNLAICVIILLFILAVINLIITLVIWAVIRIGPNGCDSMEFHESGLLRFKQVSDMGVIHPLYKSTVGGRRNENLVITGNNQPIVFQQGTTKLSVENNKTSITSDIGMQFFDPRTQNILFSTDYETHEFHLPSGVKSLNVQKASTERITSNCTSDLNIKVDGRAIVRGNEGVFIMGKTIEFHMGGNMELKAENSIILNGSVMVSTTRLPSSSSGDQLGSGDWVRYKLCMCADGTLFKVQVTSQNMGCQISDNPCGNTH [A212C] | -0.61
11 | MAAAAAAAAEQQSSNGPVKKSMREKAVERRSVNKEHNSNFKAGYIPIDEDRLHKTGLRGRKGNLAICVIILLFILAVINLIITLVIWAVIRIGPNGCDSMEFHESGLLRFKQVSDMGVIHPLYKSTVGGRRNENLVITGNNQPIVFQQGTTKLSVENNKTSITSDIGMQFFDPRTQNILFSTDYETHEFHLPSGVKSLNVQKASTERITSNETSDLNIKVDGRAIVRGNEGVFIMGKTIEFHMGGNMELKAENSIILNGSVMVSTTRLPSSSSGDQLGSGDWVRYKLCMCADGTLFKVQVTSQNMGCQISDNPCGNTH [A212E] | 0.91
12 | MAAAAAAAAEQQSSNGPVKKSMREKAVERRSVNKEHNSNFKAGYIPIDEDRLHKTGLRGRKGNLAICVIILLFILAVINLIITLVIWAVIRIGPNGCDSMEFHESGLLRFKQVSDMGVIHPLYKSTVGGRRNENLVITGNNQPIVFQQGTTKLSVENNKTSITSDIGMQFFDPRTQNILFSTDYETHEFHLPSGVKSLNVQKASTERITSNNTSDLNIKVDGRAIVRGNEGVFIMGKTIEFHMGGNMELKAENSIILNGSVMVSTTRLPSSSSGDQLGSGDWVRYKLCMCADGTLFKVQVTSQNMGCQISDNPCGNTH [A212N] | -0.89
13 | MAAAAAAAAEQQSSNGPVKKSMREKAVERRSVNKEHNSNFKAGYIPIDEDRLHKTGLRGRKGNLAICVIILLFILAVINLIITLVIWAVIRIGPNGCDSMEFHESGLLRFKQVSDMGVIHPLYKSTVGGRRNENLVITGNNQPIVFQQGTTKLSVENNKTSITSDIGMQFFDPRTQNILFSTDYETHEFHLPSGVKSLNVQKASTERITSNLTSDLNIKVDGRAIVRGNEGVFIMGKTIEFHMGGNMELKAENSIILNGSVMVSTTRLPSSSSGDQLGSGDWVRYKLCMCADGTLFKVQVTSQNMGCQISDNPCGNTH [A212L] | -0.95
14 | MAAAAAAAAEQQSSNGPVKKSMREKAVERRSVNKEHNSNFKAGYIPIDEDRLHKTGLRGRKGNLAICVIILLFILAVINLIITLVIWAVIRIGPNGCDSMEFHESGLLRFKQVSDMGVIHPLYKSTVGGRRNENLVITGNNQPIVFQQGTTKLSVENNKTSITSDIGMQFFDPRTQNILFSTDYETHEFHLPSGVKSLNVQKASTERITSNITSDLNIKVDGRAIVRGNEGVFIMGKTIEFHMGGNMELKAENSIILNGSVMVSTTRLPSSSSGDQLGSGDWVRYKLCMCADGTLFKVQVTSQNMGCQISDNPCGNTH [A212I] | 0.23
15 | MAAAAAAAAEQQSSNGPVKKSMREKAVERRSVNKEHNSNFKAGYIPIDEDRLHKTGLRGRKGNLAICVIILLFILAVINLIITLVIWAVIRIGPNGCDSMEFHESGLLRFKQVSDMGVIHPLYKSTVGGRRNENLVITGNNQPIVFQQGTTKLSVENNKTSITSDIGMQFFDPRTQNILFSTDYETHEFHLPSGVKSLNVQKASTERITSNHTSDLNIKVDGRAIVRGNEGVFIMGKTIEFHMGGNMELKAENSIILNGSVMVSTTRLPSSSSGDQLGSGDWVRYKLCMCADGTLFKVQVTSQNMGCQISDNPCGNTH [A212H] | -0.76
16 | MAAAAAAAAEQQSSNGPVKKSMREKAVERRSVNKEHNSNFKAGYIPIDEDRLHKTGLRGRKGNLAICVIILLFILAVINLIITLVIWAVIRIGPNGCDSMEFHESGLLRFKQVSDMGVIHPLYKSTVGGRRNENLVITGNNQPIVFQQGTTKLSVENNKTSITSDIGMQFFDPRTQNILFSTDYETHEFHLPSGVKSLNVQKASTERITSNSTSDLNIKVDGRAIVRGNEGVFIMGKTIEFHMGGNMELKAENSIILNGSVMVSTTRLPSSSSGDQLGSGDWVRYKLCMCADGTLFKVQVTSQNMGCQISDNPCGNTH [A212S] | 0.29
17 | MAAAAAAAAEQQSSNGPVKKSMREKAVERRSVNKEHNSNFKAGYIPIDEDRLHKTGLRGRKGNLAICVIILLFILAVINLIITLVIWAVIRIGPNGCDSMEFHESGLLRFKQVSDMGVIHPLYKSTVGGRRNENLVITGNNQPIVFQQGTTKLSVENNKTSITSDIGMQFFDPRTQNILFSTDYETHEFHLPSGVKSLNVQKASTERITSNTTSDLNIKVDGRAIVRGNEGVFIMGKTIEFHMGGNMELKAENSIILNGSVMVSTTRLPSSSSGDQLGSGDWVRYKLCMCADGTLFKVQVTSQNMGCQISDNPCGNTH [A212T] | 0.02
18 | MAAAAAAAAEQQSSNGPVKKSMREKAVERRSVNKEHNSNFKAGYIPIDEDRLHKTGLRGRKGNLAICVIILLFILAVINLIITLVIWAVIRIGPNGCDSMEFHESGLLRFKQVSDMGVIHPLYKSTVGGRRNENLVITGNNQPIVFQQGTTKLSVENNKTSITSDIGMQFFDPRTQNILFSTDYETHEFHLPSGVKSLNVQKASTERITSNMTSDLNIKVDGRAIVRGNEGVFIMGKTIEFHMGGNMELKAENSIILNGSVMVSTTRLPSSSSGDQLGSGDWVRYKLCMCADGTLFKVQVTSQNMGCQISDNPCGNTH [A212M] | 0.16
19 | MAAAAAAAAEQQSSNGPVKKSMREKAVERRSVNKEHNSNFKAGYIPIDEDRLHKTGLRGRKGNLAICVIILLFILAVINLIITLVIWAVIRIGPNGCDSMEFHESGLLRFKQVSDMGVIHPLYKSTVGGRRNENLVITGNNQPIVFQQGTTKLSVENNKTSITSDIGMQFFDPRTQNILFSTDYETHEFHLPSGVKSLNVQKASTERITSNQTSDLNIKVDGRAIVRGNEGVFIMGKTIEFHMGGNMELKAENSIILNGSVMVSTTRLPSSSSGDQLGSGDWVRYKLCMCADGTLFKVQVTSQNMGCQISDNPCGNTH [A212Q] | 0.72
